This passage reports stoichiometry N results from article doi:10.1101/459164.

Experiment [1] deals with MT145 SOSIP.664 trimer (chimpanzee SIVcpzPtt MT145 Env, wild-type V2) (SIVcpzPtt (chimpanzee SIV), isolate MT145).
The target of experiment [2] is MT145K SOSIP.664 trimer (chimpanzee SIVcpzPtt MT145 Env, Q171K) (SIVcpzPtt (chimpanzee SIV), isolate MT145). In words: cryo-EM structure.

As usually defined, the stoichiometry N is the number of molecules, sites or subunits per partner or assembly.

In experiment [1], “MT145 SOSIP.664 trimer (chimpanzee SIVcpzPtt MT145 Env, wild-type V2) (complex)” showed a stoichiometry N of 3.

As for “MT145K SOSIP.664 trimer (chimpanzee SIVcpzPtt MT145 Env, Q171K) (complex)”, in experiment [2], the stoichiometry N worked out at 3.
